Laboratory results from patent publication US20230416365A1 (Hoffmann-La Roche, published 2023).
Blank lines part the entries; values can stand above or below the binder they belong to.

How the values were obtained:
[1] = target: T1, human CEA (CEACAM5), form in the assay not stated (human, UniProt P06731 35-685, limits assumed); assay: SPR
T1 sequence: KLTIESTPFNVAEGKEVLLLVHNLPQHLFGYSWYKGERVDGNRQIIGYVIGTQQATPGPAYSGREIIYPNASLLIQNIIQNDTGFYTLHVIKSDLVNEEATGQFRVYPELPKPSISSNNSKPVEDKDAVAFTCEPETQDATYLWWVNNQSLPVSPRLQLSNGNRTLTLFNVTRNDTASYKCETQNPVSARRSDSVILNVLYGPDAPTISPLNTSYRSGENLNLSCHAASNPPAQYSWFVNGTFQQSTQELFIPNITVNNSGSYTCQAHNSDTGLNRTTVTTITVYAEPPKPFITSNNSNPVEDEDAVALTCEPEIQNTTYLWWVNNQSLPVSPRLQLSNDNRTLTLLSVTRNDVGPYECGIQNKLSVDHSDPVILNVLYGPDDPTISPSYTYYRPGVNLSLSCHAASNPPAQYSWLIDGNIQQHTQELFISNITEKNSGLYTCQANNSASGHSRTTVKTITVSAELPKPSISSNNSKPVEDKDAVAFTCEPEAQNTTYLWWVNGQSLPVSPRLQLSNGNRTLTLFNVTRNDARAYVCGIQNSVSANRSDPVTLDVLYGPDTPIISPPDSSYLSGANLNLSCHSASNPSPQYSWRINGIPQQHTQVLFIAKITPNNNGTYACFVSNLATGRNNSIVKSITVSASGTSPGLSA

[2] = target: T2, human CD28 on CHO cells (parental cell line CHO-k1 ATCC #CCL-61, modified to stably overexpress human CD28) (human, UniProt P10747 19-220); assay: flow cytometry on CHO-k1 cells expressing human CD28, PE anti-human secondary antibody, MFI
T2 construct: also called hu CD28; CHO-hCD28

[3] = target: T3, human HER3 on T-47D cells (human, UniProt P21860 20-1342); assay: flow cytometry on T-47D cells, PE anti-human secondary antibody, MFI
T3 construct: also called ErbB3

[4] = target: T2, human CD28 on CHO cells (parental cell …); assay: flow cytometry on CHO-k1 cells expressing human CD28, PE anti-human secondary antibody, MFI; remark: listed apart in the source

Kd [1]: ~0.8 nM
B1: murine CEA antibody A5B7 (parental) (antibody, V domains shown)
VH: EVKLVESGGGLVQPGGSLRLSCATSGFTFTDYYMNWVRQPPGKALEWLGFIGNKANGYTTEYSASVKGRFTISRDKSQSILYLQMNTLRAEDSATYYCTRDRGLRFYFDYWGQGTTLTVSS
VL: QTVLSQSPAILSASPGEKVTMTCRASSSVTYIHWYQQKPGSSPKSWIYATSNLASGVPARFSGSGSGTSYSLTISRVEAEDAATYYCQHWSSKPPTFGGGTKLEIK
notes: also called parental murine A5B7 antibody; parental chimeric antibody

EC50 (read off the curve) [2]: ~8 nM
B2: EpCAM (MT201)-CD28 (SA_Variant 15) 1+1 format (Molecule 14A) (bispecific antibody, human IgG1, kappa, L234A L235A)
heavy 1: not shown
light 1: QVQLVQSGAEVKKPGASVKVSCKASGYTFTSYYIHWVRQAPGQGLEWIGSIYPGNVQTNYNEKFKDRATLTVDTSISTAYMELSRLRSDDTAVYFCTRSHYGLDWNFDVWGQGTTVTVSSASVAAPSVFIFPPSDEQLKSGTASVVCLLNNFYPREAKVQWKVDNALQSGNSQESVTEQDSKDSTYSLSSTLTLSKADYEKHKVYACEVTHQGLSSPVTKSFNRGEC
heavy 2: not shown
light 2: ELQMTQSPSSLSASVGDRVTITCRTSQSISSYLNWYQQKPGQPPKLLIYWASTRESGVPDRFSGSGSGTDFTLTISSLQPEDSATYYCQQSYDIPYTFGQGTKLEIKRTVAAPSVFIFPPSDRKLKSGTASVVCLLNNFYPREAKVQWKVDNALQSGNSQESVTEQDSKDSTYSLSSTLTLSKADYEKHKVYACEVTHQGLSSPVTKSFNRGEC
notes: huIgG1 PG-LALA CrossFab; also called P1AE9051; EpCAM-CD28

EC50 (read off the curve) [3]: ~1 nM
binding result [4]: binds
B3: HER3(lumretuzumab)-CD28 (SA_Variant 15) 1+1 format (Molecule 14B) (bispecific antibody, human IgG1, kappa, L234A L235A)
heavy 1: not shown
light 1: not shown
heavy 2: DIVMTQSPDSLAVSLGERATINCKSSQSVLNSGNQKNYLTWYQQKPGQPPKLLIYWASTRESGVPDRFSGSGSGTDFTLTISSLQAEDVAVYYCQSDYSYPYTFGQGTKLEIKSSASTKGPSVFPLAPSSKSTSGGTAALGCLVKDYFPEPVTVSWNSGALTSGVHTFPAVLQSSGLYSLSSVVTVPSSSLGTQTYICNVNHKPSNTKVDKKVEPKSCDKTHTCPPCPAPEAAGGPSVFLFPPKPKDTLMISRTPEVTCVVVDVSHEDPEVKFNWYVDGVEVHNAKTKPREEQYNSTYRVVSVLTVLHQDWLNGKEYKCKVSNKALGAPIEKTISKAKGQPREPQVCTLPPSRDELTKNQVSLSCAVKGFYPSDIAVEWESNGQPENNYKTTPPVLDSDGSFFLVSKLTVDKSRWQQGNVFSCSVMHEALHNHYTQKSLSLSP
light 2: QVQLVQSGAEVKKPGASVKVSCKASGYTFRSSYISWVRQAPGQGLEWMGWIYAGTGSPSYNQKLQGRVTMTTDTSTSTAYMELRSLRSDDTAVYYCARHRDYYSNSLTYWGQGTLVTVSSASVAAPSVFIFPPSDEQLKSGTASVVCLLNNFYPREAKVQWKVDNALQSGNSQESVTEQDSKDSTYSLSSTLTLSKADYEKHKVYACEVTHQGLSSPVTKSFNRGEC
notes: huIgG1 PG-LALA CrossFab; also called P1AF0151; HER3-CD28

Kd [1]: ~2.5 nM
B4: humanized CEA antibody A5H1EL1D (format in the assay not stated) (antibody, V domains shown)
VH: EVQLLESGGGLVQPGGSLRLSCAASGFTFTDYYMNWVRQAPGKGLEWLGFIGNKANAYTTEYSASVKGRFTISRDKSKNTLYLQMNSLRAEDTATYYCTRDRGLRFYFDYWGQGTTVTVSS
VL: EIVLTQSPATLSLSPGERATLSCRASSSVTYIHWYQQKPGQAPRSWIYATSNLASGIPARFSGSGSGTDFTLTISSLEPEDFAVYYCQHWSSKPPTFGQGTKLEIK
notes: heavy chain with VH variant 3-23A5-1E and Ckappa light chain with VL variant A5-L1D; also called huA5B7
